Reference: article PMC7467569, “The Progesterone 5β-Reductase/Iridoid Synthase Family: A Catalytic Reservoir for Specialized Metabolism across Land Plants” (ACS Chemical Biology, 2020)

Columns and labels:
Assay in all cases: purified protein
[1] = tested on: CC(=O)[C@H]1CC[C@H]2[C@@H]3CCC4=CC(=O)CC[C@]4(C)[C@H]3CC[C@]12C; type: biochemical, Digitalis lanata; details: 250 μM NADPH, 50 mM HEPES/NaOH pH 7.0, 100 mM NaCl, 25 °C, 1.5% ethanol
[2] = tested on: CC(=O)[C@H]1CC[C@H]2[C@@H]3CCC4=CC(=O)CC[C@]4(C)[C@H]3CC[C@]12C; type: biochemical, Digitalis purpurea; details: 250 μM NADPH, 50 mM HEPES/NaOH pH 7.0, 100 mM NaCl, 25 °C, 1.5% ethanol
C/C(C=O)=C\CC/C(C)=C/C=O = details: 250 μM NADPH, 50 mM HEPES/NaOH pH 7.0, 100 mM NaCl, 25 °C, 0.1% tetrahydrofuran
[3] = tested on: CC(=O)[C@H]1CC[C@H]2[C@@H]3CCC4=CC(=O)CC[C@]4(C)[C@H]3CC[C@]12C; details: 250 μM NADPH, 50 mM HEPES/NaOH pH 7.0, 100 mM NaCl, 25 °C, 1.5% ethanol

## Digitalis lanata 1 (PRISE1, progesterone 5β-reductase) (Digitalis lanata)
[1]
  Km: 6.5 ± 2.0 µM

## Digitalis purpurea 2 (Digitalis purpurea)
[2]
  Km: 6.3 ± 1.9 µM

## Physcomitrella patens PRISE (Physcomitrium patens)
C/C(C=O)=C\CC/C(C)=C/C=O
  Km: 31.3 ± 8.6 µM
  kcat: 0.066 ± 0.005 s⁻¹
  kcat/Km: 2100 M⁻¹ s⁻¹
[3]
  Km: 9.5 ± 3.1 µM
